The stoichiometry N is a count of units in the complex or per binding partner.

In this assay the target is HCoV-229E S glycoprotein wild-type soluble ectodomain (residues 1-1116) with C-terminal GCN4 trimerization motif (HCoV-229E) (UniProt P15423). In words: cryo-EM structure; S trimer peak 2 (conformation 1, 3.21 A) and peak 3 (conformation 2, 3.55 A) samples at 0.75 mg/ml; C3 symmetry applied.

Substance “HCoV-229E S glycoprotein wild-type soluble ectodomain (residues 1-1116) with C-terminal GCN4 trimerization motif (from UniProt P15423 16-1116) (domain or fragment)” showed a stoichiometry N of 3.
